Source: publication PMC4432624, “Prdx4 is a compartment-specific H2O2 sensor that regulates neurogenesis by controlling surface expression of GDE2” (Nature Communications, 2015)

Target: the molecule itself
Test: western blot of Prdx4 dimers and monomers; primary motor neuron cultures treated with H2O2, Tempol or Edaravone; cells lysed with 100 mM maleimide; anti-mPrdx4 blot

B1: mouse Prdx4, endogenous in primary motor neuron cultures (enzyme, UniProt O08807 41-274, looked up)
chain: LESDERFRTRENECHFYAGGQVYPGEASRVSVADHSLHLSKAKISKPAPYWEGTAVINGEFKELKLTDYRGKYLVFFFYPLDFTFVCPTEIIAFGDRIEEFKSINTEVVACSVDSQFTHLAWINTPRRQGGLGPIRIPLLSDLNHQISKDYGVYLEDSGHTLRGLFIIDDKGVLRQITLNDLPVGRSVDETLRLVQAFQYTDKHGEVCPAGWKPGSETIIPDPAGKLKYFDKLN
notes: Peroxiredoxin 4 (Prdx4), mouse, endogenous; also called mPrdx4; source: endogenous, primary motor neuron cultures from E11.5 mouse spinal cords
With B1 the “stoichiometry N” value was 2.
